Biological target: human CD40 (human, UniProt P25942 21-277)
Experiment: cell binding (GpL luciferase, HT1080-CD40); single representative experiment

human CD40, sequence (P25942 21-277): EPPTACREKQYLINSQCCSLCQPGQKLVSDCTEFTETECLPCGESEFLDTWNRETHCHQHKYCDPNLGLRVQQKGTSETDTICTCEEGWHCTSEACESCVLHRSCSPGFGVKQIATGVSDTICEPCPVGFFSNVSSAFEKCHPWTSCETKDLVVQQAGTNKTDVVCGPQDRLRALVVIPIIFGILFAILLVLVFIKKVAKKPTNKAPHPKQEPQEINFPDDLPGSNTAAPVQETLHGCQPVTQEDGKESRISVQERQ

B1: GpL-CD40L, a fusion protein of soluble CD40L and Gaussia princeps luciferase (GpL) (ligand)
chain: GDQNPQIAAHVISEASSKTTSVLQWAEKGYYTMSNNLVTLENGKQLTVKRQGLYYIYAQVTFCSNREASSQAPFIASLCLKSPGRFERILLRAANTHSSAKPCGQQSIHLGGVFELQPGASVFVNVTDPSQVSHGTGFTSFGLLKL
- Kd: 0.14 µg/mL

— patent publication US20260092124A1 (published 2026)
